Data taken from patent US20210179715A1.
Residue numbers refer to the chain shown, from its start. “And” between values parts separate entries of the source, which are not always exact repeats. Equal values may be shown once. Read-outs that look alike come from different tables or passages of the source. Values belong to the binder of their own block, whether it stands above or below them.

Key:
[1] = biological target: T1, 27mer cyno CD3 polypeptide conjugated to biotin (cynomolgus monkey); experiment: BIAcore T200 SPR; biotin 27mer CD3 peptide on SA chip; TDB flowed; 37 C
T1 sequence (peptide, conjugated to biotin (site not stated)): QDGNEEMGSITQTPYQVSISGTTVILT

[2] = biological target: T1, 27mer cyno CD3 polypeptide conjugated to biotin (cynomolgus monkey); experiment: as above; remark: listed apart in the source
[3] = biological target: cynomolgus LY6G6D-Fc (cynomolgus monkey); experiment: BIAcore SPR; LY6G6D-Fc on chip; TDB flowed; 37 C
[4] = biological target: cynomolgus LY6G6D-Fc (cynomolgus monkey); experiment: BIAcore SPR; LY6G6D-Fc on chip; TDB flowed; 37 C; remark: listed apart in the source
[5] = biological target: T2, human LY6G6D-Fc (human) (UniProt O95868); experiment: BIAcore SPR; LY6G6D-Fc on chip; TDB flowed; 37 C
T2 sequence: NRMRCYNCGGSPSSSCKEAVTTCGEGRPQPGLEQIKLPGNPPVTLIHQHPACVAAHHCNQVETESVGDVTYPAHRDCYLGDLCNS

[6] = biological target: T2, human LY6G6D-Fc (human); experiment: BIAcore SPR; LY6G6D-Fc on chip; TDB flowed; 37 C; remark: listed apart in the source
[7] = biological target: cynomolgus LY6G6D-Fc (cynomolgus monkey); experiment: BIAcore SPR; two-cell TDB

Kd [4]: 13.1 nM
koff [4]: 0.00936 s⁻¹
kon [4]: 714000 M⁻¹ s⁻¹
B3: LY6G6D TDB comprising the anti-LY6G6D 1G4 arm and the anti-CD3 38E4.v1 arm (bispecific antibody, V domains shown)
VH 1: EVQLVQSGAEVKKPGASVKVSCKASGYTFTTYVMHWVRQAPGQGLEWMGYINPYNDGTKYNEKFKGRVTMTRDTSISTAYMELSRLRSDDTAVYYCGRRNFDYWGQGTLVTVSS
VL 1: DIVMTQSPDSLAVSLGERATINCKSSQSLLLSGNQENYLAWHQQKPGQPPKTLITWASTRISGVPDRFSGSGSGTDFTLTISSLQAEDVAVYYCQQSYSAPYTFGGGTKVEIK
VH 2: EVQLVQSGAEVKKPGASVKVSCKASGFTFTSYYIHWVRQAPGQGLEWIGWIYPENDNTKYNEKFKDRVTITADTSTSTAYLELSSLRSEDTAVYYCARDGYSRYYFDYWGQGTLVTVSS
VL 2: DIVMTQSPDSLAVSLGERATINCKSSQSLLNSRTRKNYLAWYQQKPGQSPKLLIYWTSTRKSGVPDRFSGSGSGTDFTLTISSLQAEDVAVYYCKQSFILRTFGQGTKVEIK

koff [5]: 0.000456 s⁻¹
Kd [4]: 4.91 nM
koff [4]: 0.000413 s⁻¹
kon [4]: 84300 M⁻¹ s⁻¹
Kd [6]: 5.62 nM
koff [6]: 0.000453 s⁻¹
kon [6]: 80600 M⁻¹ s⁻¹
B4: LY6G6D TDB comprising the anti-LY6G6D 20A12.QNTv12 arm (two-cell) and the anti-CD3 40G5c arm (bispecific antibody, part only; not given: anti-CD3 arm and constant regions, V domains shown, part only)
VH: EVQLLESGGGLVQPGGSLRLSCAASGFDFVNNAMIWVRQAPGKGLEWVSALSFADNTAYYATWASGRFTISRDSSKTTVYLQMNSLRAEDTAVYYCMRGDLWGPGTLVTVSS
VL: DIQMTQSPSTLSASVGDRVTITCQASESITRYLNWYQQKPGKAPKLLIYDASKLPSGVPSRFSGSGSGTEFTLTISSLQPDDFATYYCQSTSFRGRSYQNTFGGGTKVEIK

Kd [7]: 2.29 nM
Kd [1]: 14.8 nM
Kd [4]: 2.29 nM
koff [4]: 0.00038 s⁻¹
kon [4]: 166000 M⁻¹ s⁻¹
Kd [3]: 1.92 nM
koff [3]: 0.000444 s⁻¹
kon [3]: 231000 M⁻¹ s⁻¹
Kd [2]: 13 nM and 16.5 nM
koff [2]: 0.0337 s⁻¹ and 0.0364 s⁻¹
kon [2]: 2.6e+06 M⁻¹ s⁻¹ and 2.21e+06 M⁻¹ s⁻¹
B6: LY6G6D TDB comprising the anti-LY6G6D 20A12.QNTv12 arm (two-cell) and the anti-CD3 38E4v1 arm (bispecific antibody, V domains shown)
VH 1: B4 VH
VL 1: B4 VL
VH 2: B3 VH 2
VL 2: B3 VL 2

Further lines, the binder ahead of its results:

B1: LY6G6D TDB assembled using a one-cell system comprising the anti-LY6G6D 20A12.QNTv12 arm (one-cell) and the anti-CD3 38E4v1 (WT) arm (bispecific antibody, V domains shown)
VH 1: B4 VH with Q39E
VL 1: B4 VL with Q38K
VH 2: B3 VH 2 with Q39K
VL 2: B3 VL 2 with Q44E
Kd [1]: 15.9 nM
Kd [2]: 15.4 nM and 16.5 nM
koff [2]: 0.0399 s⁻¹ and 0.0437 s⁻¹
kon [2]: 2.6e+06 M⁻¹ s⁻¹ and 2.65e+06 M⁻¹ s⁻¹

B2: LY6G6D TDB assembled using a one-cell system comprising the anti-LY6G6D 20A12.QNTv12 arm (one-cell) and the anti-CD3 38E4v1 MD4 arm (bispecific antibody, V domains shown)
VH 1: B4 VH with Q39E
VL 1: B4 VL with Q38K
VH 2: B3 VH 2 with Q39K
VL 2: B3 VL 2 with Q44E, S49P, T57A
Kd [1]: 14.4 nM
Kd [3]: 2.62 nM
koff [3]: 0.000574 s⁻¹
kon [3]: 219000 M⁻¹ s⁻¹
Kd [2]: 14 nM and 14.7 nM
koff [2]: 0.0433 s⁻¹ and 0.0426 s⁻¹
kon [2]: 3.09e+06 M⁻¹ s⁻¹ and 2.89e+06 M⁻¹ s⁻¹

B5: LY6G6D TDB assembled using a one-cell system comprising the anti-LY6G6D 20A12.QNTv12 arm (one-cell) and the anti-CD3 38E4v1 MD1 arm (bispecific antibody, V domains shown)
VH 1: B4 VH with Q39E
VL 1: B4 VL with Q38K
VH 2: B3 VH 2 with Q39K
VL 2: B3 VL 2 with Q44E, S49P, T57A, K61E, K95T
Kd [1]: 26.1 nM
Kd [3]: 3.63 nM
koff [3]: 0.000512 s⁻¹
kon [3]: 141000 M⁻¹ s⁻¹
Kd [2]: 26.6 nM and 25.6 nM
koff [2]: 0.0383 s⁻¹ and 0.0376 s⁻¹
kon [2]: 1.44e+06 M⁻¹ s⁻¹ and 1.47e+06 M⁻¹ s⁻¹
